Drawing on publication PMC11934925, this text covers binding result, Kd and binding signal for six molecules.

Data set [1] deals with T1, FLI1 F362A 259-399 (UniProt Q01543 259-399, F362A).
T1 sequence: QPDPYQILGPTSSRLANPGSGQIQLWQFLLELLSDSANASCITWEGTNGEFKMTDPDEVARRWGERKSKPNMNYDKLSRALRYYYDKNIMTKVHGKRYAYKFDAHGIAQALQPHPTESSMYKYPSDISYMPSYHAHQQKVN
As to the kind of experiment: X-ray crystallography.

Data set [2] addresses T2, FLI1 276-375 N329E/D333G (UniProt Q01543 276-375, N329E;D333G;F362A).
T2 sequence: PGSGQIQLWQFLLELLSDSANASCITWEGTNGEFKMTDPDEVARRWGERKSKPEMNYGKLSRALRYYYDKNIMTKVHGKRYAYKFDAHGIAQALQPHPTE
As to the kind of experiment: fluorescence anisotropy.

In data set [3] the target is T3, FLI1 276-375 N329E (UniProt Q01543 276-375, N329E;F362A).
T3 sequence: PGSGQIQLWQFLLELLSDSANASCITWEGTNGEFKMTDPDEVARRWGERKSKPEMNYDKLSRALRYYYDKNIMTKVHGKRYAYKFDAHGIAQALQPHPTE
As to the kind of experiment: fluorescence anisotropy.

For data set [4], the target named is T4, FLI1 276-371 (UniProt Q01543 276-371).
T4 sequence: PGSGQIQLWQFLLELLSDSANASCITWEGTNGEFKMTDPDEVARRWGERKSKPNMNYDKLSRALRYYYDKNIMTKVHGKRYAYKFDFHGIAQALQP
As to the kind of experiment: fluorescence anisotropy.

Data set [5] deals with T5, FLI1 F362A 276-399 (UniProt Q01543 276-399, F362A).
T5 sequence: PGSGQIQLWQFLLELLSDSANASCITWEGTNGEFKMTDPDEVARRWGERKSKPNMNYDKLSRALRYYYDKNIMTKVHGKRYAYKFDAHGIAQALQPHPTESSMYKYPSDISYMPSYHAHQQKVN
As to the kind of experiment: fluorescence anisotropy.

For data set [6], the target named is T6, FLI1 F362A 259-375 (UniProt Q01543 259-375, F362A).
T6 sequence: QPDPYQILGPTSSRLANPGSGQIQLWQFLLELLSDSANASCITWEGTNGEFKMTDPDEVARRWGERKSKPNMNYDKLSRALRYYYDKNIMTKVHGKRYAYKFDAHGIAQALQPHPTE
As to the kind of experiment: fluorescence anisotropy.

For data set [7], the target named is T7, FLI1 F362A 259-371 (UniProt Q01543 259-371, F362A).
T7 sequence: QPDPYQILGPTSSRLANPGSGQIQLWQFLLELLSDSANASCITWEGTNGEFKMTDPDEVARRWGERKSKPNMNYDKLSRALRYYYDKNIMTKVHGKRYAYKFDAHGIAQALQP
As to the kind of experiment: fluorescence anisotropy.

The target in data set [8] is T8, FLI1 F362A 276-375 (UniProt Q01543 276-375, F362A).
T8 sequence: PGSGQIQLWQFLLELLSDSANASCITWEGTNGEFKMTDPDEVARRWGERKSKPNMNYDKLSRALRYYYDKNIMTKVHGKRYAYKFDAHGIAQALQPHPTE
As to the kind of experiment: fluorescence anisotropy.

Data set [9] concerns the target T5, FLI1 F362A 276-399. As to the kind of experiment: fluorescence anisotropy. The source holds these as a separate data set.
Data set [10] addresses T6, FLI1 F362A 259-375. As to the kind of experiment: fluorescence anisotropy. The source holds these as a separate data set.
Data set [11] has as its target T1, FLI1 F362A 259-399. As to the kind of experiment: fluorescence anisotropy.
Data set [12] deals with T7, FLI1 F362A 259-371. As to the kind of experiment: fluorescence anisotropy. This is another data set of the same source.
The target of data set [13] is T8, FLI1 F362A 276-375. As to the kind of experiment: fluorescence anisotropy. This is another data set of the same source.
For data set [14], the target named is T2, FLI1 276-375 N329E/D333G. As to the kind of experiment: fluorescence anisotropy. This is another data set of the same source.
The target of data set [15] is T3, FLI1 276-375 N329E. As to the kind of experiment: fluorescence anisotropy. This is another data set of the same source.
The target in data set [16] is T9, FLI1 276-375 D333G (UniProt Q01543 276-375, D333G;F362A).
T9 sequence: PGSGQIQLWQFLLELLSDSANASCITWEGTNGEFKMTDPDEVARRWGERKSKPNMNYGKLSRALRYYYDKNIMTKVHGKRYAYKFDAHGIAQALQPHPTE
As to the kind of experiment: fluorescence anisotropy.

The target in data set [17] is T6, FLI1 F362A 259-375. As to the kind of experiment: X-ray crystallography.
For data set [18], the target named is T10, FLI1 DBD 259-399 WT (UniProt Q01543 259-399).
T10 sequence: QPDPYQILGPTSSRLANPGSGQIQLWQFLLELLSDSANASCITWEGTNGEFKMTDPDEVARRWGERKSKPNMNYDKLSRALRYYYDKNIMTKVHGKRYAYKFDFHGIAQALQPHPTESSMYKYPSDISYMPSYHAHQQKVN
As to the kind of experiment: X-ray crystallography.

Data set [19] concerns the target T1, FLI1 F362A 259-399. As to the kind of experiment: X-ray crystallography. The source holds these as a separate data set.
For data set [20], the target named is T5, FLI1 F362A 276-399. As to the kind of experiment: EMSA.
The target of data set [21] is T1, FLI1 F362A 259-399. As to the kind of experiment: EMSA.
Data set [22] deals with T4, FLI1 276-371. As to the kind of experiment: EMSA.
The target of data set [23] is T8, FLI1 F362A 276-375. As to the kind of experiment: EMSA.

B1: 4sites (dsDNA)
DNA 1: GACCGGAAGGAAGGAAGGAAGTGCG
DNA 2: CGCACTTCCTTCCTTCCTTCCGGTC
Consider B1, for which the binding result in [1] was “binds”.

B2: 1site_weak (dsDNA)
DNA 1: TTGAAGGAAGAG
DNA 2: CTCTTCCTTCAA
On to B2, for which the dissociation constant Kd in data set [2] came out at 126 ± 14 nM; in data set [3] it was 275 ± 39 nM; in data set [4] it was 402 ± 172 nM; in data set [5], 146 ± 37 nM; in data set [6] it was 544 ± 288 nM; in data set [7], 1010 ± 421 nM. In data set [8], this molecule displayed a dissociation constant Kd of 137 ± 34 nM.

B3: 2site_weak-weak (w-w) (dsDNA)
DNA 1: CAGAAAGGAAGGAAGTG
DNA 2: CACTTCCTTCCTTTCTG
In the case of B3, the binding signal was 16 ± 10 cooperativity factor w in data set [9]; 103 ± 26 cooperativity factor w in [10]; 41 ± 21 cooperativity factor w in [11]; 22 ± 7 cooperativity factor w in data set [12]; 33 ± 20 cooperativity factor w in data set [13]; around 1 cooperativity factor w in data set [14]. The binding signal in data set [15] is 6 ± 6 cooperativity factor w; in data set [16], around 1 cooperativity factor w.

B4: 3sites (dsDNA)
DNA 1: GACCGGAAGGAAGGAAGTG
DNA 2: CACTTCCTTCCTTCCGGTC
Take B4: in data set [17], the binding result was “binds”.

B5: 2sites (dsDNA)
DNA 1: GACCGGAAGGAAGTG
DNA 2: CACTTCCTTCCGGTC
In the case of B5, the binding result in data set [18] and in data set [19] was “binds” throughout.

B6: 2site_strong-weak (s-w) (dsDNA)
DNA 1: CAGACCGGAAGGAAGTG
DNA 2: CACTTCCTTCCGGTCTG
B6: the binding result in data set [20], in data set [21], in data set [22] and in [23] was “binds” in each case.
